From patent publication US20190025332A1 (Novo Nordisk, published 2019)
One block for each binder: values may come before it.

Key:
hGDNF [1] = biological target: T1, hGDNF (human, UniProt P39905 78-211); assay: SPR; ligand as analyte over immobilised mGFRAL(ECR)-Fab-HPC4
T1 sequence (looked up): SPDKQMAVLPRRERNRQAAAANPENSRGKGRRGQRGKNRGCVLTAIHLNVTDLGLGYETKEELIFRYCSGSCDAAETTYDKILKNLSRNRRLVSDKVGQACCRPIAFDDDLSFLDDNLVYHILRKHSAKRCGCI
Description: (§1) For SPR-based binding assay, wtMIC-1 as well as hGDNF, hNRTN, hARTN and hPSPN, at various concentrations were run as flow-through analytes. hGFRAL(ECR)-Fab and mGFRAL(ECR)-Fab were immobilized as ligand. […] FCRL2-Fab-HPC4 (Ctrl.-Fab-HPC4) was used as control. Please see FIG. 5 and Table 4.

hARTN [2] = biological target: T2, hARTN (human, UniProt Q5T4W7 108-220); assay: as above
T2 sequence (looked up): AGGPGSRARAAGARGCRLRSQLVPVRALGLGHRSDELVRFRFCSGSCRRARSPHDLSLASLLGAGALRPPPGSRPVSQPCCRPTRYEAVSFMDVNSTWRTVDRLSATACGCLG
Description: as §1

hNRTN [3] = biological target: T3, hNRTN (human, UniProt Q99748 96-197); assay: as above
T3 sequence (looked up): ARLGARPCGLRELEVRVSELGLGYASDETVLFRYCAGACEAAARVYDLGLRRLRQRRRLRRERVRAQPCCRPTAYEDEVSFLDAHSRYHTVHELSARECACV
Description: as §1

wild type human MIC-1 [4] = biological target: T4, wild type human MIC-1 (human, UniProt Q99988 197-308); assay: as above
T4 construct: also called wtMIC-1; hMIC-1
T4 sequence: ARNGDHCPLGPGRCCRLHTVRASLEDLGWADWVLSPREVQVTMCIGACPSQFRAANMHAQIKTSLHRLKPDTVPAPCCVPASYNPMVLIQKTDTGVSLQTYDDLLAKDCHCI
Description: as §1

hPSPN [5] = biological target: T5, hPSPN (human, UniProt O60542 61-156, limits assumed); assay: as above
T5 sequence (looked up): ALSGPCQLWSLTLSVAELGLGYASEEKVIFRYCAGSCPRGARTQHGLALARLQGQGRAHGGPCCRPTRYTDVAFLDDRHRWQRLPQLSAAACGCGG
Description: as §1

wild type human MIC-1 [6] = biological target: T4, wild type human MIC-1; assay: SPR; GFRAL fragment as analyte over immobilised wtMIC-1; relative to hGFRAL(ECR) set as 100%
Procedure: MIC-1 interactions with soluble GFRAL fragments were assessed by SPR-based binding assay. A Biacore® 4000 (GE Healthcare, Piscataway, N.J., USA) instrument was used for SPR-based binding assay. The assays were performed at 25° C. at flow rates of 30 μL/minute in 1× HBS-P running buffer (BR-1006-71, GE Healthcare, Piscataway, N.J., USA). Purified GFRAL fragments at various concentrations were run as flow-through analyte and wtMIC-1 was immobilized as ligand. Please see FIG. 6 and Table 5.

hGDNF [7] = biological target: T1, hGDNF; assay: SPR; ligand as analyte over immobilised hGFRAL(ECR)-Fab-HPC4
Description: as §1

hARTN [8] = biological target: T2, hARTN; assay: as above
Description: as §1

hNRTN [9] = biological target: T3, hNRTN; assay: as above
Description: as §1

hPSPN [10] = biological target: T5, hPSPN; assay: as above
Description: as §1

binding result (hGDNF [1]): no binding | binding result (hARTN [2]): no binding | binding result (hNRTN [3]): no binding | binding result (wild type human MIC-1 [4]): binds | binding result (hPSPN [5]): no binding
B1: mGFRAL(ECR)-Fab-HPC4 (receptor)
chain: QTNDCAHLIQKCLIDANGCEQSWRSMEDTCLTPGDSCKINNSLHCNLSIQALVEKNFQFKECLCMDDLHCTVNKLFGKKCTNKTDNMEKDNKDKWNLTTTPFYHGFKQMQSCLEVTEACVGDVVCNAQLALYLKACSANGNLCDVKHCQAAIRFFYQNMPFNTAQMLAFCDCAQSDIPCQQSKETLHSKPCALNIVPPPTCLSVIHTCRNDELCRTHYRTFQTECWPHITGKCHEDETCISMLGKQDLTCSGSESCRAAFLGTFGTVLQVPCACRGVTQAEEHVCMIFQHMLHSKSCFNYPTPNVKDISSYEKKNSKEITLTGFNSFFNGGGGSGGGGSDVVMTQTPLSLPVSLGDQASISCRSSQSLLHSNGNTYLHWYLQKPGQSPKLLIYKVSNRFSGVPDRFSGSGSGTDFTLKISRVEAEDLGVYFCSQSTHVPWTFGGGTKLEIKRADAAPTVSIFPPSSEQLTSGGASVVCFLNNFYPKDINVKWKIDGSERQNGVLNSWTDQDSKDSTYSMSSTLTLTKDEYERHNSYTCEATHKTSTSPIVKSFNRNEC
heavy: EVQIQESGPSLVKPSQTLSLTCSVSGDSITSGYWNWIRKFPGHKIEYMGTISYSGDTYYNPSLKSRISITRDTSKNQYYLHLNSVTTEDTATYYCARYGSYVFDYWGQGTTLTVSSAKTTPPSVYPLAPGSAAQTNSMVTLGCLVKGYFPEPVTVTWNSGSLSSGVHTFPAVLQSDLYTLSSSVTVPSSTWPSETVTCNVAHPASSTKVDKKIVPRDCGGGGSEDQVDPRLIDGK
notes: Soluble fusion of the mouse GFRAL (isoform 1) extracellular region with an anti-TNP Fab; also called mGFRA(ECR)L-Fab-HPC4

% of Binding (wild type human MIC-1 [6]): 100% | binding result (hGDNF [7]): no binding | binding result (hARTN [8]): no binding | binding result (hNRTN [9]): no binding | binding result (hPSPN [10]): no binding
B2: hGFRAL(ECR)-Fab-HPC4 (receptor)
chain: QTNNCTYLREQCLRDANGCKHAWRVMEDACNDSDPGDPCKMRNSSYCNLSIQYLVESNFQFKECLCTDDFYCTVNKLLGKKCINKSDNVKEDKFKWNLTTRSHHGFKGMWSCLEVAEACVGDVVCNAQLASYLKACSANGNPCDLKQCQAAIRFFYQNIPFNIAQMLAFCDCAQSDIPCQQSKEALHSKTCAVNMVPPPTCLSVIRSCQNDELCRRHYRTFQSKCWQRVTRKCHEDENCISTLSKQDLTCSGSDDCKAAYIDILGTVLQVQCTCRTITQSEESLCKIFQHMLHRKSCFNYPTLSNVKGMALYTRKHANKITLTGFHSPFNGEGGGGSGGGGSDVVMTQTPLSLPVSLGDQASISCRSSQSLLHSNGNTYLHWYLQKPGQSPKLLIYKVSNRFSGVPDRFSGSGSGTDFTLKISRVEAEDLGVYFCSQSTHVPWTFGGGTKLEIKRADAAPTVSIFPPSSEQLTSGGASVVCFLNNFYPKDINVKWKIDGSERQNGVLNSWTDQDSKDSTYSMSSTLTLTKDEYERHNSYTCEATHKTSTSPIVKSFNRNEC
heavy: B1 heavy
